The source of these data is the RNAGym collection of RNA variant scans (doi:10.7554/elife.80360).

B1: HDV Ribozyme (parent)
chain: GGCCGGCAUGGUCCCAGCCUCCUCGCUGGCGCCGGCUGGGCAACAUUCCGAGGGGACCGUCCCCUCGGUAAUGGCGAAUGGGACCCA

This data set covers variants of B1. As to the kind of experiment: self-cleavage, relative activity (ratio to wild type); higher = more cleavage; co-transcriptional.
Consider GGCCGGCAUGGUCCCAGCCUCCCCGCUGGCGCUGGCUGGGCAACAUUCCGAGGGGACCGUCCCCUCGGUAAUGGCGAAUGGGACCCA [U23C C33U], for which the self-cleavage was 0.697.
The result for GGCCGGCAUGGUCCCAGCCUCCCCGCUGGCGCCGGCUGGGCAACAUUCCGAGGGGACCGUCCCCUCGGUAAUGGCGGAUGGGACCCA [U23C A77G] reads 0.587.
To GGCCGGCAUGGUCCCAGCCUCCCCGCUGGCGCCGGCUGGGCAACAUUCCGAGGGGACCGUCCCCUCGGUAAUGGCGUAUGGGACCCA [U23C A77U] belongs 0.353; to GGCCGGCAUGGUCCCAGCCUCCCCGCUGGCGCCGGCUGGGCAACAUUCCGAGAGGACCGUCCCCUCGGUAAUGGCGAAUGGGACCCA [U23C G53A], 0.849; to GGCCGGCAUGGUCCCAGCCUCCCCGCUGGCGUCGGCUGGGCAACAUUCCGAGGGGACCGUCCCCUCGGUAAUGGCGAAUGGGACCCA [U23C C32U], 0.587.
Take GGCCGGCAUGGUCCCAGCCUCCCCGCUGGCGACGGCUGGGCAACAUUCCGAGGGGACCGUCCCCUCGGUAAUGGCGAAUGGGACCCA [U23C C32A]: the self-cleavage worked out at 0.125.
The result for GGCCGGCAUGGUCCCAGCCUCCGCGCUGGCGCCGGCUGGGCAACAUUCCGAGGGGACCGUCCCCUCGGUAAUGGCGGAUGGGACCCA [U23G A77G] reads 0.554; that for GGCCGGCAUGGUCCCAGCCUCCCCGCUGGCGCCGGCUGGGCAACAUUCCGAGGGGACCGUCCCCUAGGUAAUGGCGAAUGGGACCCA [U23C C66A], 0.982; that for GGCCGGCAUGGUCCCAGCCUCCCCGCUGGCGCCGGCUGGGCAACAUUCCGAGGGGACCGUCCCCUCGGUUAUGGCGAAUGGGACCCA [U23C A70U], 0.917.
The result for GGCCGGCAUGGUCCCAGCCUCCGCGCUGGCGCCGGCUGGGCAACAUUCCGAGGGGACCGUCCCCUCGGUAAUGGCGAAUGGGACCCC [U23G A87C] reads 0.799; that for GGCCGGCAUGGUCCCAGCCUCCCCGCUGGAGCCGGCUGGGCAACAUUCCGAGGGGACCGUCCCCUCGGUAAUGGCGAAUGGGACCCA [U23C C30A], 0.369; that for GGCCGGCAUGGUCCCAGCCUCCCCGCUGGCGCCGGCAGGGCAACAUUCCGAGGGGACCGUCCCCUCGGUAAUGGCGAAUGGGACCCA [U23C U37A], 0.0536.
As for GGCCGGCAUGGUCCCAGCCUCCCCGCUGGCGCCGGCCGGGCAACAUUCCGAGGGGACCGUCCCCUCGGUAAUGGCGAAUGGGACCCA [U23C U37C], the self-cleavage was found to be 1.15.
The result for GGCCGGCAUGGUCCCAGCCUCCCCGCUGGCGCCGGCUGGUCAACAUUCCGAGGGGACCGUCCCCUCGGUAAUGGCGAAUGGGACCCA [U23C G40U] reads 0.587; that for GGCCGGCAUGGUCCCAGCCUCCCCGCUGGCGCCGGCUGGGCAACAUUCCGAGGGGACCGUCCCCUCGGUAAUGGCGAAUGGGACGCA [U23C C85G], 0.869.
To GGCCGGCAUGGUCCCAGCCUCCCCGCCGGCGCCGGCUGGGCAACAUUCCGAGGGGACCGUCCCCUCGGUAAUGGCGAAUGGGACCCA [U23C U27C] belongs 0.65; to GGCCGGCAUGGUCCCAGCCUCCCCGCUGGCGCCGGCUGGGCAACAUUCCGAGGGGACCAUCCCCUCGGUAAUGGCGAAUGGGACCCA [U23C G59A], 1.19; to GGCCGGCAUGGUCCCAGCCUCCGCGCUGGCGCCGGCUGGGCAACAUUCCGAGGGGACCGUCCCCUCGGUCAUGGCGAAUGGGACCCA [U23G A70C], 0.571.
To GGCCGGCAUGGUCCCAGCCUCCGCGCUGGCGCCGGCUGGGCAAUAUUCCGAGGGGACCGUCCCCUCGGUAAUGGCGAAUGGGACCCA [U23G C44U] belongs 0.325; to GGCCGGCAUGGUCCCAGCCUCCCCGCUGGCGCCGGCUGGGCAACAUUCCGAGGGGACCGUCACCUCGGUAAUGGCGAAUGGGACCCA [U23C C62A], 0.762; to GGCCGGCAUGGUCCCAGCCUCCCCGCUGGCGCCGGCUGGGCAACAUUCCGAGGGGACCGUCCCCUCGGUAAUGGCGAAUGGGACCCC [U23C A87C], 0.929.
For GGCCGGCAUGGUCCCAGCCUCCCCGCUGGCGCCGGCUGGGCAACAUUCCGAGGGGACCGUCCCCUCGGUAAUGGCGAAUGGCACCCA [U23C G82C], the self-cleavage was 0.465.
As for GGCCGGCAUGGUCCCAGCCUCCGGGCUGGCGCCGGCUGGGCAACAUUCCGAGGGGACCGUCCCCUCGGUAAUGGCGAAUGGGACCCA [U23G C24G], the self-cleavage stood at 0.16.
To GGCCGGCAUGGUCCCAGCCUCCGCGCUGGCGCCGGCUGGGGAACAUUCCGAGGGGACCGUCCCCUCGGUAAUGGCGAAUGGGACCCA [U23G C41G] belongs 0.597; to GGCCGGCAUGGUCCCAGCCUCCCCGCUGGCGCCGGCUGGGCAACAUUCCGAGGGGACCGUCCCUUCGGUAAUGGCGAAUGGGACCCA [U23C C64U], 0.786; to GGCCGGCAUGGUCCCAGCCUCCCCGCUGGCGCCGGCUGGGCAACAUUCCGACGGGACCGUCCCCUCGGUAAUGGCGAAUGGGACCCA [U23C G52C], 1.01.
The result for GGCCGGCAUGGUCCCAGCCUCCCCGCUGGCGCCGGCUGGGCAACAUUCCGAGGGGACCGUCCCCUCCGUAAUGGCGAAUGGGACCCA [U23C G67C] reads 0.969.
To GGCCGGCAUGGUCCCAGCCUCCCCGCUGGCGCCGGCUGGGCAACAUUCCGAGGGGACCGUCCCCUCGGUAAUUGCGAAUGGGACCCA [U23C G73U] belongs 0.148; to GGCCGGCAUGGUCCCAGCCUCCCCGCUGGCGCCGGCUGGGCAACAUUCCGAGGGGACCGUCCCCUCGGUAAUAGCGAAUGGGACCCA [U23C G73A], 0.525; to GGCCGGCAUGGUCCCAGCCUCCCCGCUGGCGCCGGCUGGGCAACAUUCCGAGGGGACCGUCCCCUCGGUAAUCGCGAAUGGGACCCA [U23C G73C], 0.269.
For the variant GGCCGGCAUGGUCCCAGCCUCCGCGCUGGCGCUGGCUGGGCAACAUUCCGAGGGGACCGUCCCCUCGGUAAUGGCGAAUGGGACCCA [U23G C33U], the self-cleavage was 0.569.
As for GGCCGGCAUGGUCCCAGCCUCCCCGCUGGCGCCGGCUGGGCAACAUUCCGAGGGGACCGUCCCCUCGGUAAUGGCGAAUGGGAUCCA [U23C C84U], the self-cleavage was 0.831.
In the case of GGCCGGCAUGGUCCCAGCCUCCCCGCUGGCGCCGGCUGGGCAACAUUCCGAGGGGACCGUCCCCUCGGUAAUGGCGAAUGGGAACCA [U23C C84A], the self-cleavage is 0.911.
For the variant GGCCGGCAUGGUCCCAGCCUCCGCGCUGGCGCCGGCUGGGCAACAUUCCGAGGGGACCGUCCCCUCGGUAAUGGCGAAUGGGUCCCA [U23G A83U], the self-cleavage was 0.107.
To GGCCGGCAUGGUCCCAGCCUCCGCGCUGGCGCCGGCUGGGCAACAUUCCGAGGGGACCGUCCCCUCGGUAAUGGCGAAUGGGCCCCA [U23G A83C] belongs 0; to GGCCGGCAUGGUCCCAGCCUCCCCGCUGGCGCCGGCUGGGCAACAUUCCGAGGGGACCGUCCCCUCGGUAAUGGCGAAUGAGACCCA [U23C G81A], 0.591.
In the case of GGCCGGCAUGGUCCCAGCCUCCCCGCUGGCGCCGGCUGGGCAACAUUCCGAGGGGACCGUCCCCUCGGUAAUGGCAAAUGGGACCCA [U23C G76A], the self-cleavage was found to be 1.22.
The result for GGCCGGCAUGGUCCCAGCCUCCCCGCUGGCGCCGGCUGGGCAACAUUCCGAGGGGACCGUCCCCUCGGUAAUGGCUAAUGGGACCCA [U23C G76U] reads 1.14; that for GGCCGGCAUGGUCCCAGCCUCCGCGAUGGCGCCGGCUGGGCAACAUUCCGAGGGGACCGUCCCCUCGGUAAUGGCGAAUGGGACCCA [U23G C26A], 0.739; that for GGCCGGCAUGGUCCCAGCCUCCGCGCUGGCGCCGGCUGGGCAACAUUCCGAGGGGACCGUCCCCUGGGUAAUGGCGAAUGGGACCCA [U23G C66G], 0.32.
Consider GGCCGGCAUGGUCCCAGCCUCCCCGCUGGCGCCGGCUGGGCAACAUUCCGAGGCGACCGUCCCCUCGGUAAUGGCGAAUGGGACCCA [U23C G54C], for which the self-cleavage stood at 0.673.
Consider GGCCGGCAUGGUCCCAGCCUCCGCGCUGGCGCCGGCUGGGCCACAUUCCGAGGGGACCGUCCCCUCGGUAAUGGCGAAUGGGACCCA [U23G A42C], for which the self-cleavage is 0.
The result for GGCCGGCAUGGUCCCAGCCUCCCCGCUGGCGCCGGCUUGGCAACAUUCCGAGGGGACCGUCCCCUCGGUAAUGGCGAAUGGGACCCA [U23C G38U] reads 0.175; that for GGCCGGCAUGGUCCCAGCCUCCCCGCUGGCGCCGGCUGGGCAACAUUCCGAGGGGACCGUCCGCUCGGUAAUGGCGAAUGGGACCCA [U23C C63G], 0.813; that for GGCCGGCAUGGUCCCAGCCUCCGCGCUGGCGCCGGCUGGGCAACAUUCCGAGGGGUCCGUCCCCUCGGUAAUGGCGAAUGGGACCCA [U23G A56U], 0.759.
To GGCCGGCAUGGUCCCAGCCUCCCCGCUGGCGCCGGCUGGGCAACAUUCCGAGGGGACCGCCCCCUCGGUAAUGGCGAAUGGGACCCA [U23C U60C] belongs 0.858; to GGCCGGCAUGGUCCCAGCCUCCCCGCUGGCGCCGGCUGGGCAACAUUCCGAGGGGACCGACCCCUCGGUAAUGGCGAAUGGGACCCA [U23C U60A], 0.877.
With GGCCGGCAUGGUCCCAGCCUCCCCGCUGGCGCCCGCUGGGCAACAUUCCGAGGGGACCGUCCCCUCGGUAAUGGCGAAUGGGACCCA [U23C G34C], the self-cleavage was determined as 0.172.
To GGCCGGCAUGGUCCCAGCCUCCCCGCUGGCGCCGGCUGGGCAACAUUCCGAGGGGACCGUCCCCUCGUUAAUGGCGAAUGGGACCCA [U23C G68U] belongs 0.897; to GGCCGGCAUGGUCCCAGCCUCCCCGCUGGCGCCGGCUGGGCAACAUUCCGAGGGGACCGUCCCCUCGAUAAUGGCGAAUGGGACCCA [U23C G68A], 0.87; to GGCCGGCAUGGUCCCAGCCUCCCCGCUGGCGCCGUCUGGGCAACAUUCCGAGGGGACCGUCCCCUCGGUAAUGGCGAAUGGGACCCA [U23C G35U], 0.354.
To GGCCGGCAUGGUCCCAGCCUCCCCGCUGGCGCCGGCUGGGCAACAUUCCGAGGGGACCGUCCCCUCGGUAGUGGCGAAUGGGACCCA [U23C A71G] belongs 0.9.
The result for GGCCGGCAUGGUCCCAGCCUCCGCGCUGGCGCCGGCUGGGCAACAUUCCGAGGGGACCGUCCUCUCGGUAAUGGCGAAUGGGACCCA [U23G C63U] reads 0.469.
As for GGCCGGCAUGGUCCCAGCCUCCCCGCUGGCGCCGGCUGAGCAACAUUCCGAGGGGACCGUCCCCUCGGUAAUGGCGAAUGGGACCCA [U23C G39A], the self-cleavage worked out at 0.519.
To GGCCGGCAUGGUCCCAGCCUCCGCGCUGGCGUCGGCUGGGCAACAUUCCGAGGGGACCGUCCCCUCGGUAAUGGCGAAUGGGACCCA [U23G C32U] belongs 0.6; to GGCCGGCAUGGUCCCAGCCUCCGCGCUGGCGACGGCUGGGCAACAUUCCGAGGGGACCGUCCCCUCGGUAAUGGCGAAUGGGACCCA [U23G C32A], 0.0652.
To GGCCGGCAUGGUCCCAGCCUCCCCGCUGGCGCCGGCUGGGCAAGAUUCCGAGGGGACCGUCCCCUCGGUAAUGGCGAAUGGGACCCA [U23C C44G] belongs 0.185; to GGCCGGCAUGGUCCCAGCCUCCCCGCUGGCGCCGGCUGGGCAAAAUUCCGAGGGGACCGUCCCCUCGGUAAUGGCGAAUGGGACCCA [U23C C44A], 0.462.
To GGCCGGCAUGGUCCCAGCCUCCGCGCUGGCGCCGGCUGGGCAACAUUCCGAGGGGACCGUCCCGUCGGUAAUGGCGAAUGGGACCCA [U23G C64G] belongs 0.95.
As to GGCCGGCAUGGUCCCAGCCUCCCCGCUGGCGCCGGCUGGGCAACAUUCCGAGGGGACCGUCCCCUCGGUAAUGGCGAAUGGGACCAA [U23C C86A], the self-cleavage was determined as 0.857.
To GGCCGGCAUGGUCCCAGCCUCCCCGCUGGCGCCGGCUGGGCAACAUUCCGAGGGGACCGUCCCCUCGGUAAUGGCGAAUGGGACCUA [U23C C86U] belongs 0.6; to GGCCGGCAUGGUCCCAGCCUCCGCGCUGGCGCCGGCUGGGCAACAUUCCGAGGGGACAGUCCCCUCGGUAAUGGCGAAUGGGACCCA [U23G C58A], 0.877.
To GGCCGGCAUGGUCCCAGCCUCCGCGCUGGCGCCGGCUGGGCAACAUUCCGAGGGGACCGUCCCCUCGGUAAUGGCGAAUGGGACCCA [U23G] belongs 0.731; to GGCCGGCAUGGUCCCAGCCUCCCCGCUGGCGCCGGCUGGGCAACAUUCCGAGGGGACCGUCCCCUCGGUAAUGGCGACUGGGACCCA [U23C A78C], 0.231.
